Data published in patent US20230416396A1 (Regeneron, published 2023).

How the values were obtained:
human 4-1BB on cells [1] = target: T1, human 4-1BB on cells (human, UniProt Q07011 24-255); experiment: cell-based or functional assay
[2] = target: T2, human 4-1BB expressed with a C-terminal murine Fc tag (human, UniProt Q07011 24-186); experiment: SPR Biacore 8k, antibody captured by anti-human Fc, h4-1BB.mFc as analyte, 25 C
T2 construct: also called h4-1BB.mFc; REGN3585; not shown: C-terminal murine Fc tag
Description: (§1) Equilibrium dissociation constants (KD values) for human 4-1BB expressed with a C-terminal myc-myc-hexahistidine tag (h4-1BB.mmH, REGN3584) or human 4-1BB expressed with a C-terminal murine Fc tag (h4-1BB.mFc, REGN3585) binding to purified anti-CD38×4-1BB 1+2 antibodies were determined using a real-time surface plasmon resonance biosensor using a Biacore 8k instrument. The CM5 Biacore sensor surface was derivatized by amine coupling with a monoclonal mouse anti-human Fc antibody (REGN2567). All Biacore binding studies were performed in a buffer composed of 0.01M HEPES pH 7.4, 0.15M NaCl, 3 mM EDTA, 0.05% v/v Surfactant P20 (HBS-EP running buffer). […] Antibody-reagent association was monitored for 5 minutes while dissociation in HBS-EP running buffer was monitored for 10 minutes. At the end of each cycle, the anti-CD38×4-1BB 1+2 antibody capture surface was regenerated using a 10 second injection of 20 mM phosphoric acid. All binding kinetics experiments were performed at 25° C.
(§2) Kinetic association (kₐ) and dissociation (kd) rate constants were determined by fitting the real-time sensorgrams to a 1:1 binding model using Cytiva Insight curve fitting software. Binding dissociation equilibrium constants (KD) and dissociative half-lives (t/2) were calculated from the kinetic rate constants as: […]

human 4-1BB on cells [3] = target: T1, human 4-1BB on cells; experiment: cell-based or functional assay; remark: listed apart in the source
human 4-1BB on cells [4] = target: T1, human 4-1BB on cells; experiment: cell-based or functional assay; remark: listed apart in the source
[5] = target: T3, human 4-1BB expressed with a C-terminal myc-myc-hexahistidine tag (human, UniProt Q07011 24-186); experiment: SPR Biacore 8k, antibody captured by anti-human Fc, h4-1BB.mmH as analyte, 25 C
T3 construct: also called h4-1BB.mmH; REGN3584; not shown: C-terminal myc-myc-hexahistidine tag
Description: as §1, §2

[6] = target: T2, human 4-1BB expressed with a C-terminal …; experiment: SPR Biacore 4000, h4-1BB.mFc captured by anti-mouse Fc, antibody as analyte, 25 C
Description: Equilibrium dissociation constants (KD values) for human 4-1BB expressed with a C-terminal murine Fc tag (h4-1BB.mFc, REGN3585) binding to purified anti-CD38×4-1BB 1+2 antibodies were determined using a real-time surface plasmon resonance biosensor using a Biacore 4000 instrument. […] All Biacore binding studies were performed in a buffer composed of 0.01M HEPES pH 7.4, 0.15M NaCl, 3 mM EDTA, 0.05% v/v Surfactant P20 (HBS-EP running buffer). Different concentrations of CD38×4-1BB 1+2 constructs prepared in HBS-EP running buffer (ranging from 100 to 6.25 nM in 4-fold serial dilutions) were injected over the h4-1BB.mFc (REGN3585) captured surface at a flow rate of 30 μL/minute. Antibody-reagent association was monitored for 5 minutes while dissociation in HBS-EP running buffer was monitored for 10 minutes. At the end of each cycle, the h4-1BB.mFc capture surface was regenerated using a 40 sec injection of 10 mM glycine, pH 1.5. All binding kinetics experiments were performed at 25° C.
as §2

T1 sequence (Q07011 24-255): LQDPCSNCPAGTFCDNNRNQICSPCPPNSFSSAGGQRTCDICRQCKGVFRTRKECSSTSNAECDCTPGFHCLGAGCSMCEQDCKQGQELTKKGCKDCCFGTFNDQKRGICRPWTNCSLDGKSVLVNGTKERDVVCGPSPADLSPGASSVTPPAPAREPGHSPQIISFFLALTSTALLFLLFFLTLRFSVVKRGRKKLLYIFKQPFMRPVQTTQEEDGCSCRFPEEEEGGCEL
T2 sequence (Q07011 24-186 limits assumed): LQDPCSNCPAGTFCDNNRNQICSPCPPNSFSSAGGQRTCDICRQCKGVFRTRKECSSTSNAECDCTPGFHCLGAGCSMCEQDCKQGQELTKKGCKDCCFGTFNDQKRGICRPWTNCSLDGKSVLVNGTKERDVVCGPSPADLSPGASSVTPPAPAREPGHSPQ
T3 sequence (Q07011 24-186 limits assumed): as above

B1: REGN9682 (bispecific antibody, human IgG4 S228P, kappa)
heavy 1: EVQLVESGGGLVQPGRSLRLSCGASGFTFDDYVMHWVRQIPGKGLEWVAGISWNSGSIGYADSVKGRFTISRDNAKNSLYLQMNSLRAEDTALYFCAKDHIDPYSSSLYYYYGMDVWGQGTTVTVSSASTKGPSVFPLAPCSRSTSESTAALGCLVKDYFPEPVTVSWNSGALTSGVHTFPAVLQSSGLYSLSSVVTVPSSSLGTKTYTCNVDHKPSNTKVDKRVGGGGSGGGGSGGGGSEVQLVESGGGLVQPGRSLRLSCGASGFTFDDYVMHWVRQIPGKGLEWVAGISWNSGSIGYADSVKGRFTISRDNAKNSLYLQMNSLRAEDTALYFCAKDHIDPYSSSLYYYYGMDVWGQGTTVTVSSASTKGPSVFPLAPCSRSTSESTAALGCLVKDYFPEPVTVSWNSGALTSGVHTFPAVLQSSGLYSLSSVVTVPSSSLGTKTYTCNVDHKPSNTKVDKRVESKYGPPCPPCPAPPVAGPSVFLFPPKPKDTLMISRTPEVTCVVVDVSQEDPEVQFNWYVDGVEVHNAKTKPREEQFNSTYRVVSVLTVLHQDWLNGKEYKCKVSNKGLPSSIEKTISKAKGQPREPQVYTLPPSQEEMTKNQVSLTCLVKGFYPSDIAVEWESNGQPENNYKTTPPVLDSDGSFFLYSRLTVDKSRWQEGNVFSCSVMHEALHNRFTQKSLSLSPGK
heavy 2: EVQLVESGGGLVQPGRSLRLSCAASGFTFDDYAMHWVRQAPGKGLEWVSGISWKSDNIGYADSVKGRFTISRDNAKNSLYLQMNSLRAEDTALYYCAKALGGWKFDYYYGMDVWGQGTTVTVSSASTKGPSVFPLAPCSRSTSESTAALGCLVKDYFPEPVTVSWNSGALTSGVHTFPAVLQSSGLYSLSSVVTVPSSSLGTKTYTCNVDHKPSNTKVDKRVESKYGPPCPPCPAPPVAGPSVFLFPPKPKDTLMISRTPEVTCVVVDVSQEDPEVQFNWYVDGVEVHNAKTKPREEQFNSTYRVVSVLTVLHQDWLNGKEYKCKVSNKGLPSSIEKTISKAKGQPREPQVYTLPPSQEEMTKNQVSLTCLVKGFYPSDIAVEWESNGQPENNYKTTPPVLDSDGSFFLYSRLTVDKSRWQEGNVFSCSVMHEALHNHYTQKSLSLSLGK
light: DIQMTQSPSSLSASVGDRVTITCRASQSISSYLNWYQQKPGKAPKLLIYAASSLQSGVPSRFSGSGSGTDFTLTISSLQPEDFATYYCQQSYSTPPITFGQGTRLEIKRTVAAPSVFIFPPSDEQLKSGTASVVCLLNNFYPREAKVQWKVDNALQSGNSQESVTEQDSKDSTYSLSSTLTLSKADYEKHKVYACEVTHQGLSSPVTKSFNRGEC
notes: 1+2 format, hIgG4P-PVA; The linker between the two 4-1BB Fabs is (G4S)3; also called CD38x4-1BB (1 + 2), (G4S)3; 26812P2 x 35333P2 (IN) + 35333P2 (OUT)
- EC50 of luciferase activity, HEK293/NFkB-Luc/h4-1BB reporter + OPM2 (human 4-1BB on cells [1]): 0.0219 nM
- MAX luciferase activity, HEK293/NFkB-Luc/h4-1BB reporter + HEK293/CD20 (human 4-1BB on cells [1]): 1e+06 RLU
- MAX luciferase activity, HEK293/NFkB-Luc/h4-1BB reporter + HEK293/CD20/CD38 (human 4-1BB on cells [1]): 2.4e+06 RLU
- MAX luciferase activity, HEK293/NFkB-Luc/h4-1BB reporter + MOLP-8 (human 4-1BB on cells [1]): 2.2e+06 RLU
- MAX luciferase activity, HEK293/NFkB-Luc/h4-1BB reporter + OPM2 (human 4-1BB on cells [1]): 2.1e+06 RLU
- 100 nM h4-1BB.mFc Bind (RU) [2]: 283 RU
- Kd [2]: 0.86 nM
- koff [2]: 0.000177 s⁻¹
- kon [2]: 206000 M⁻¹ s⁻¹
- t½ [2]: 65.3 min
- EC50 of IFNγ release, T cells + HEK293/CD20/CD38 + REGN2281 (human 4-1BB on cells [3]): 0.0526 nM
- EC50 of IFNγ release, T cells + MOLP-8 + REGN5458 (human 4-1BB on cells [3]): 0.0725 nM
- EC50 of IFNγ release, T cells + NALM-6 (human 4-1BB on cells [3]): 0.0419 nM
- MAX IFNγ release, T cells + HEK293/CD20 + REGN2281 (human 4-1BB on cells [3]): 1570 pg/mL
- MAX IFNγ release, T cells + HEK293/CD20/CD38 + REGN2281 (human 4-1BB on cells [3]): 5270 pg/mL
- MAX IFNγ release, T cells + MOLP-8 + IsoC (human 4-1BB on cells [3]): 161 pg/mL
- MAX IFNγ release, T cells + MOLP-8 + REGN5458 (human 4-1BB on cells [3]): 3410 pg/mL
- MAX IFNγ release, T cells + NALM-6 (human 4-1BB on cells [3]): 658 pg/mL
- EC50 of IL-2 release, T cells + HEK293/CD20/CD38 + REGN2281 (human 4-1BB on cells [4]): 0.0607 nM
- EC50 of IL-2 release, T cells + MOLP-8 + REGN5458 (human 4-1BB on cells [4]): 0.133 nM
- EC50 of IL-2 release, T cells + NALM-6 (human 4-1BB on cells [4]): 0.0717 nM
- MAX IL-2 release, T cells + HEK293/CD20 + REGN2281 (human 4-1BB on cells [4]): 52 pg/mL
- MAX IL-2 release, T cells + HEK293/CD20/CD38 + REGN2281 (human 4-1BB on cells [4]): 912 pg/mL
- MAX IL-2 release, T cells + MOLP-8 + IsoC (human 4-1BB on cells [4]): 96 pg/mL
- MAX IL-2 release, T cells + MOLP-8 + REGN5458 (human 4-1BB on cells [4]): 79 pg/mL
- MAX IL-2 release, T cells + NALM-6 (human 4-1BB on cells [4]): 205 pg/mL
- 100 nM h4-1BB.mmH Bind (RU) [5]: 107 RU
- Kd [5]: 13.8 nM
- koff [5]: 0.00494 s⁻¹
- kon [5]: 358000 M⁻¹ s⁻¹
- t½ [5]: 2.3 min
- 100 nM Ab Bind (RU) [6]: 234 RU
- Kd [6]: 0.716 nM
- koff [6]: 0.000308 s⁻¹
- kon [6]: 430000 M⁻¹ s⁻¹
- t½ [6]: 37.6 min
